30 sequences from the supplement of paper PMC9170038 can be followed below.

This data set relates to MS2 coat protein. The data set is described as follows: apparent KD of MS2 coat protein; designed switch direction (-1 OFF switch, 1 ON switch): -1; higher = weaker reporter binding. The method, boiled down:
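Stalled E. coli RNA polymerase transcribed designed RNA switches on Illumina chips, which were then titrated with SNAP-549-labelled MS2 coat protein, doubling from 0.7 or 1.5 nM to 3 µM. Steps lasted from 0.8–1.5 h at the lowest concentration to 10–20 min at the highest. The apparent KD is each design's median over clusters of curve-fitted normalised fluorescence.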

[1] abbreviates: input ligand: microRNA oligo, concentration not stated.
The mark [2] stands for this setting: Eterna round: R95, input ligand: FMN 200 uM.
The mark [3] stands for this setting: Eterna round: R95, input ligand: microRNA oligo, concentration not stated.
[4] abbreviates: Eterna round: R95, input ligand: none.

On to “UACAUGAGGAUCACCCAUGUUUUGUCGUGUAUGGUAUUUAUCUAGGAUAUCAAUUGAUUUAUUCAUGAGAAGGAGAAUAUUAAU [JMF's solution 64] (Eterna round: R96, puzzle: Exclusion NG 3)”, for which the “apparent KD of MS2 coat protein” value runs as follows: (input ligand: FMN 200 uM) 34.1 nM; under setting [1], 31.4 nM; (input ligand: none) 39.8 nM.

With “UACAUGAGGAUCACCCAUGUUUUGUCGUGUAUGGUAUUUAUCUAGGAUAUCAAUUGUUUUAUUUAUGAGAAGGAGAAUAUUAAU [JMF's solution 56] (Eterna round: R96, puzzle: Exclusion NG 3)”, the “apparent KD of MS2 coat protein” value under setting [1] stood at 24.8 nM.

On to “UACAUGAGGAUCACCCAUGUUUUGUCGUGUAUGGUAUUUAUCUAGGAUAUCAAUUUAUUAAUUUAUGAGAAGGAGAAUAUUAAU [JMF's solution 20] (Eterna round: R96, puzzle: Exclusion NG 3)”, for which the “apparent KD of MS2 coat protein” value amounted to 34.4 nM (input ligand: FMN 200 uM), 25.8 nM under setting [1] and 43.3 nM (input ligand: none).

Take “UACAUGAGGAUCACCCAUGUUUUGUCGUGUAUGGUAUUUAUCUAGGAUAUCAAUUUGUUUAUUUAUGAGAAGGAGAAUAUUAAU [JMF's solution 16] (Eterna round: R96, puzzle: Exclusion NG 3)”: the “apparent KD of MS2 coat protein” value turned out to be 39.2 nM (input ligand: FMN 200 uM), 29.8 nM under setting [1] and 41 nM (input ligand: none).

Take “UACAUGAGGAUCACCCAUGUUUUGUCGUGUAUGGUAUUUAUCUAGGAUAUCAUGUUAUUUAUUUAUGAGAAGGAGAAUAUUAAU [JMF's solution 24] (Eterna round: R96, puzzle: Exclusion NG 3)”: the “apparent KD of MS2 coat protein” value is, setting by setting: (input ligand: FMN 200 uM) 32.6 nM; under setting [1], 29.1 nM; (input ligand: none) 32.5 nM.

For “UACAUGAGGAUCACCCAUGUUUUGUCGUGUAUGGUAUUUAUCUAGGAUAUCAUUUUAUUUAGCUAUGAGAAGGAGAAUAUUAAU [JMF's solution 94] (Eterna round: R96, puzzle: Exclusion NG 3)”, the “apparent KD of MS2 coat protein” value (input ligand: FMN 200 uM) was 32.3 nM, the “apparent KD of MS2 coat protein” value under setting [1] was found to be 20.5 nM and the “apparent KD of MS2 coat protein” value (input ligand: none) is 31.2 nM.

“UACCGGCGGACCGAGGCUUUUUGCUCGUCUUAUACUACAACAUGAGGAUCACCCAUGUGGUGGUGGUCCGUUGUAGU [JL ViennaUCT Bitein mod 5] (puzzle: Sensor v3, turn-off variant 2)”: the “apparent KD of MS2 coat protein” value was 21.7 nM under setting [2], 6.09 nM under setting [3] and 16.2 nM under setting [4].

With “UAGAAACAUGAGGAUCACCCAUGUGAGGAUAUGAAAAAGAAAAGAAAAGAAAGAAGAAUCAGAAGGCACAAAGA [salish99-ex1_r3_083] (puzzle: Exclusion 1)”, the “apparent KD of MS2 coat protein” value was 33.6 nM under setting [2], 25.9 nM under setting [3] and 23.6 nM under setting [4].

As to “UAGAAAGGUAAGGAUAUCCAUGUGAAAUAAAGAGGAGAAGGUACCACAUGAGGAUCACCCAUGUGGCUCUCAAA [jl-ex6-4.54 Nando mod] (Eterna round: R97, puzzle: Exclusion 6)”, the “apparent KD of MS2 coat protein” value by setting is: (input ligand: FMN 200 uM) 13.8 nM; (input ligand: none) 14.7 nM.

Regarding “UAGAUACAUGAGGAUCACCCAUGUGAGGAUAUGAGAAUGAAAUGAAAUGAAUGAAGAAUCAGAAGGCACAAAGG [JL-ex1-4.31 salish99 mod] (Eterna round: R97, puzzle: Exclusion 1)”, the “apparent KD of MS2 coat protein” value runs as follows: (input ligand: FMN 200 uM) 238 nM; (input ligand: none) 54 nM.

With “UAGAUGGCUCAGGAUAUUUGCCAACUAACCCGCAAAGAAGGGAGCACAUGAGGAUCACCCAUGUGAUCGAACAA [Xeortibeza] (puzzle: Exclusion 6)”, the “apparent KD of MS2 coat protein” value amounted to 114 nM under setting [2], 22.6 nM under setting [3] and 26.1 nM under setting [4].

Turning to “UAGGUGUGAGGAUAUGGUAAAGAUAAGAUGAUAAAAGAACUCCAGAAGGCACAUGAGGAUCACCCAUGUAGAUG [Mat - Exclusion 4 - Mod of JL - D34] (puzzle: Exclusion 4)”, the “apparent KD of MS2 coat protein” value turned out to be 62.9 nM under setting [2], 22.8 nM under setting [3] and 25.8 nM under setting [4].

“UAGUAGCAAGGAUAUACAGAGGAGAGGAAAGCAAGAGGAGGACAUGAGGAUCACCCAUGUAGAAGGUGCAGAGA [JR_Exclu2_Sub020] (puzzle: Exclusion 2)”: the “apparent KD of MS2 coat protein” value is 74.6 nM under setting [2], 73.9 nM under setting [3] and 66.6 nM under setting [4].

For “UAGUUAGCGUGUGGCACAUACAUGAGGAUCACCCAUGUUAGCUUAUAUAUUGCUCGUCUUAUAACAACACUUAACUU [Mod JX-Electric-eye6] (Eterna round: R97, puzzle: Sensor, turn-off variant 1)”, the “apparent KD of MS2 coat protein” value (input ligand: FMN 200 uM) is 18.7 nM and the “apparent KD of MS2 coat protein” value (input ligand: none) stood at 19 nM.

Regarding “UAGUUAUUCACAGGAUAUCGCCUCUUAUUACAUGAGGAUCACCCAUGUUUACUUAGUUACAUGUUCGAGAAGGGUGUAGCCGUU [JR_ExcNG2_Sub044] (Eterna round: R96, puzzle: Exclusion NG 2)”, the “apparent KD of MS2 coat protein” value under setting [1] worked out at 301 nM.

With “UAUAACCAAGGAUAUACAUGAGGAUCACCCAUGUAAUAUAAUAUAAUAUAAAUAAAAUGUAGAAGGUGGGAUAU (Eterna round: R97, puzzle: Exclusion 3)”, the “apparent KD of MS2 coat protein” value stood at 26.6 nM (input ligand: FMN 200 uM) and 31.4 nM (input ligand: none).

“UAUAUACAUGAGGAUCACCCAUGUAAGGAUAUGCUUUAUUAUUAUUAUUAUUAUUAUUGCAGAAGGUACAUUAU [LRO-Excl01-05] (Eterna round: R97, puzzle: Exclusion 1)”: the “apparent KD of MS2 coat protein” value is, setting by setting: (input ligand: FMN 200 uM) 38.4 nM; (input ligand: none) 33.8 nM.

Consider “UAUAUAUAGUAAGGAUAUGUAUAUGUUUUAUAAACAGAAGGUACUGACAUGAGGAUCACCCAUGUUUUAGUGUGGGCAUGUAGA [JMF's solution 54] (Eterna round: R96, puzzle: Exclusion NG 1)”, for which the “apparent KD of MS2 coat protein” value under setting [1] was 44.5 nM.

“UAUAUAUAGUAAGGAUAUGUAUUAAUAUUAUAAACAGAAGGUACUGACAUGAGGAUCACCCAUGUUUUAGUGUGGGCAUGUAGA [JMF's solution 77] (Eterna round: R96, puzzle: Exclusion NG 1)”: the “apparent KD of MS2 coat protein” value under setting [1] is 66.8 nM.

With “UAUAUGUCAGGAUAUUAGUAGUAAAUGAAUAAAAUUAUUACUGAGAAGGGACAUGAGGAUCACCCAUGUGUCUC [Mat - Exclusion 4 - Eli Mod - D26] (Eterna round: R97, puzzle: Exclusion 4)”, the “apparent KD of MS2 coat protein” value is, setting by setting: (input ligand: FMN 200 uM) 577 nM; (input ligand: none) 175 nM.

On to “UAUCGGGACUGAGGAUAUUCGUUCGAACACGAAGAAGAAGGUAGUGUCAGGGACAUGAGGAUCACCCAUGUGAUUUCAGUCCCA [JL ViennaUCT Erinle mod 4] (Eterna round: R96, puzzle: Exclusion NG 1)”, for which the “apparent KD of MS2 coat protein” value by setting is: (input ligand: FMN 200 uM) 133 nM; under setting [1], 96.8 nM; (input ligand: none) 139 nM.

With “UAUGUAUACGUCAGGAUAUACGGUCCAGAUGGUAAGUAGAAGGGACAUGAGGAUCACCCAUGUAUAAUAAUAAU [AK 1] (puzzle: Brourd's mod of Exclusion 4)”, the “apparent KD of MS2 coat protein” value was found to be 20.2 nM under setting [2], 18 nM under setting [3] and 22.5 nM under setting [4].

Turning to “UAUGUGUCAGGAUAUUAGUAGUAAAUAAAUAAAAUUAUUACUGAGAAGGGACAUGAGGAUCACCCAUGUGCCUU [Salish 062 v31] (Eterna round: R97, puzzle: Exclusion 4)”, the “apparent KD of MS2 coat protein” value is, setting by setting: (input ligand: FMN 200 uM) 23.2 nM; (input ligand: none) 12.3 nM.

As to “UAUUACCUAGGAUAUACAUGAGGAUCACCCAUGUCACGGGUCAACUUGUCCUACGCGUGUAGAAGGAGGGACCC [JL Ceriza mod 7] (puzzle: Exclusion 3)”, the “apparent KD of MS2 coat protein” value under setting [3] is 19.7 nM.

As for “UAUUACGCAAGCAGGUCCCACAUGAGGAUCACCCAUGUGCUCGUCUUAUAACGAUCUGUGGGAAAACCUACGGAUCG [Elimod 19 - Jieux - Sensor, turn-off variant 1] (Eterna round: R97, puzzle: Sensor, turn-off variant 1)”, the “apparent KD of MS2 coat protein” value was 45.8 nM (input ligand: FMN 200 uM) and 48.4 nM (input ligand: none).

In the case of “UAUUAGCAAGCAAAUGGGUACAUGAGGAUCACCCAUGUGCUCGUCUUAUAAGGUACUGUGACGAAAGUCACGGUCCC [mod--Eli7] (Eterna round: R97, puzzle: Sensor, turn-off variant 1)”, the “apparent KD of MS2 coat protein” value (input ligand: FMN 200 uM) turned out to be 23 nM and the “apparent KD of MS2 coat protein” value (input ligand: none) was 24 nM.

Take “UAUUAGCAAGCGAGAUCCCACAUGAGGAUCACCCAUGUGCUCGUCUUAUAAAAGACUGUGACGAGAGUCACGGUCAC [Mat - Sensor, turn-off var - Eli Mod - D23] (Eterna round: R97, puzzle: Sensor, turn-off variant 1)”: the “apparent KD of MS2 coat protein” value (input ligand: FMN 200 uM) is 13.7 nM and the “apparent KD of MS2 coat protein” value (input ligand: none) came out at 12 nM.

“UAUUAGCAAGUGAGAUCCCACAUGAGGAUCACCCAUGUGCUCGUCUUUUAACGUACUGUGAGGAAACUCACGGUACG [Sensor-V1 #82] (Eterna round: R97, puzzle: Sensor, turn-off variant 1)”: the “apparent KD of MS2 coat protein” value came out at 62.1 nM (input ligand: FMN 200 uM) and 67.1 nM (input ligand: none).

Take “UAUUAUAAUGUAGGAUAUCUGCACGUGUAGUGCAGAGAAGGACAUGAGGAUCACCCAUGUAUAGUAGCUUCGGCUACAUUAUUU [ENG1-B3] (Eterna round: R96, puzzle: Exclusion NG 1)”: the “apparent KD of MS2 coat protein” value (input ligand: FMN 200 uM) worked out at 90.5 nM, the “apparent KD of MS2 coat protein” value under setting [1] stood at 61.8 nM and the “apparent KD of MS2 coat protein” value (input ligand: none) came out at 71.2 nM.

Regarding “UAUUCGAUAGGAUAUGCACAUCAUUUGGGAGGUAACAGUGCACAUGAGGAUCACCCAUGUAGAAGGAUCUGGAU [Eternabot (L2) Solution 46] (Eterna round: R97, puzzle: Exclusion 2)”, the “apparent KD of MS2 coat protein” value amounted to 102 nM (input ligand: FMN 200 uM) and 118 nM (input ligand: none).
